Test results published in PMC10563079 (Molecules, 2023).
Like-named read-outs stand apart in the source and are kept apart here. Bridge positions count the residues as written; N and C are the ends. Ends that are not written are not given here. Peptide text beside a SMILES is read from it.

Experiments:
[1] = target: T1, full-length PHGDH (1-533) (Homo sapiens, UniProt O43175); experiment: full-length PHGDH enzyme activity assay (NADH fluorescence); format: biochemical
T1 construct: the full-length PHGDH (1-533); made in house
T1 sequence (O43175 1-533): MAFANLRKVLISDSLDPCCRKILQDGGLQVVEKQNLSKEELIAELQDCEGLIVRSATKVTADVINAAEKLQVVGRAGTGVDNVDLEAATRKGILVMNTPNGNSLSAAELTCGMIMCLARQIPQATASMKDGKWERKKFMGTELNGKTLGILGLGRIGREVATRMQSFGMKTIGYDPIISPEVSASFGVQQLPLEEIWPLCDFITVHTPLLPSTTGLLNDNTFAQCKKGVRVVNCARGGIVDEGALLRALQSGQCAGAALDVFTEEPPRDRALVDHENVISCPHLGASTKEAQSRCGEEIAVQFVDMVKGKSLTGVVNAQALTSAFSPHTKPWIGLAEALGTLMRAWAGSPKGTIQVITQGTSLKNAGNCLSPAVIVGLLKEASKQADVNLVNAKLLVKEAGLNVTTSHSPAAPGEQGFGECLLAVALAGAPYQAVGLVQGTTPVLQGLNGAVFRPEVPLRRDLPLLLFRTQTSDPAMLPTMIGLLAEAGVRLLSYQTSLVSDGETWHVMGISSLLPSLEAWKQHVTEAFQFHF
Method: (§1) PHGDH activity in the presence of peptides was measured in 96-well plates (100 μL per well) at 25 °C, through monitoring the NADH fluorescence (excitation at 360 nm and emission at 460 nm) over time. PAST1 and its substrate glutamate were also included in order to prevent product inhibition. In the enzyme assays, protein expression and purification, including the truncated version of PHGDH (sPHGDH, 1-307), the full-length PHGDH (1-533), and PAST1, were carried out as described in our previous papers. To evaluate the effects of peptides on enzyme activity, the peptides were pre-incubated with enzyme samples (sPHGDH 453.3 nM or PHGDH 30.9 nM) in the assay buffer (HEPES 50 mM, pH 7.5, 10 mM MgCl2, and 1 mM EDTA) for 12 h. Then, 1.98 μM PAST1, 1 mM NAD^+, and 30 mM glutamate were added and pre-incubated for 10 min before initiating the enzyme reaction via the addition of the substrate (1 mM 3-PG). Fluorescence signals were recorded for 3 min with the kinetics-reading mode of the Biotek plate reader (Synergy). IC50 values were obtained through fitting the data using a three-parameter Hill model of the graph of log dose against the percentage inhibition from three repeated experiments. For those peptides containing two disulfide bonds, a second step of oxidation reaction was carried out to generate the second disulfide pair. […] The purified Acm-protected peptide was then treated with iodine (I2, 1 wt% in MeOH), dropwise under acidic conditions until the solution became brown.

sPHGDH (1-307) = target: T2, sPHGDH (1-307) (Homo sapiens, UniProt O43175); experiment: sPHGDH enzyme activity assay (NADH fluorescence); format: biochemical
T2 construct: the truncated version of PHGDH (sPHGDH, 1-307); made in house
T2 sequence (O43175 1-307): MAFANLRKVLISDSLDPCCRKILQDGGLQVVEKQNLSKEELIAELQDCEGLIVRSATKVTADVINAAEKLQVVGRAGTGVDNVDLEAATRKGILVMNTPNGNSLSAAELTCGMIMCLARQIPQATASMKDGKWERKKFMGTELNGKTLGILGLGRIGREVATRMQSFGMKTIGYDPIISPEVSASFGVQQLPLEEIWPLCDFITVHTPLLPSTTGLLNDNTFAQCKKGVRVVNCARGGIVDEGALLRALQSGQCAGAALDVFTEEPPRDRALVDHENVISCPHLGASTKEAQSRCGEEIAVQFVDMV
Method: as §1

[2] = target: T3, truncated version of PHGDH (sPHGDH, 1-307) (human, UniProt O43175 1-307, labelled with Monolith NT.115 Protein Labeling Kit RED-NHS (in the MST assay only)); experiment: cell-based or functional assay
T3 sequence (looked up): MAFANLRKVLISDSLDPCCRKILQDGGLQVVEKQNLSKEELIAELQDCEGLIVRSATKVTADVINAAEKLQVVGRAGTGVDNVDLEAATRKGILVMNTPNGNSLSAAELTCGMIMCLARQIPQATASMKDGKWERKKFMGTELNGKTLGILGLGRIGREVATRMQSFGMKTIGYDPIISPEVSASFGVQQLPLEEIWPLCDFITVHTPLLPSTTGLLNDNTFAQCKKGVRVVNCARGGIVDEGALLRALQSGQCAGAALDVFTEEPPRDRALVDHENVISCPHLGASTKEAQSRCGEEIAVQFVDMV

[3] = target: T3, truncated version of PHGDH (sPHGDH, …); experiment: MST; sPHGDH labelled with RED-NHS, 20 nM final; peptides in 16 points, 1:2 dilutions from 0.5 mM; 50 mM HEPES pH 7.5, 1 mM EDTA, 10 mM MgCl2, 100 mM NaCl, 0.005% Tween 20; incubated 16 h at room temperature; 1:1 binding mode; apparent; conditions: both partners purified
[4] = target: T4, full-length PHGDH (1-533) (human, UniProt O43175 1-533); experiment: cell-based or functional assay
T4 sequence (looked up): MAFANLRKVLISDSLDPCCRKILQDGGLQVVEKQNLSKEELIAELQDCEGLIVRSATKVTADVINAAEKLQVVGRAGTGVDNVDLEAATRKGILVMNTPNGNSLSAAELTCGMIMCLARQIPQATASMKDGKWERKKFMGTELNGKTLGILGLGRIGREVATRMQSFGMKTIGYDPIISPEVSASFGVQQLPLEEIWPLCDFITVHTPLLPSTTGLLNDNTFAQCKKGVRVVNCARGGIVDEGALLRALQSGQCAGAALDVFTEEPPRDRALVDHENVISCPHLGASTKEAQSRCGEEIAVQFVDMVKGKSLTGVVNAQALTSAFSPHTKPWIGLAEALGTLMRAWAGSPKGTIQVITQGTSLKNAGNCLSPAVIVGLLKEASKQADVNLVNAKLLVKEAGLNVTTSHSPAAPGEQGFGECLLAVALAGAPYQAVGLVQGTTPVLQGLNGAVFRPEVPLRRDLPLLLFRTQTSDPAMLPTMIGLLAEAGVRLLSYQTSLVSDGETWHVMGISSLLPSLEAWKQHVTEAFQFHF

[5] = read-out: IC50 value (μM), full-length PHGDH activity
[6] = sPHGDH, 12 h pre-incubation, read-out: IC50 Value
[7] = IC50 value (μM), full-length PHGDH activity

CSCC[C@@H]1NC(=O)[C@H](CO)NC(=O)[C@H](CC(C)C)NC(=O)[C@H]([C@@H](C)O)NC(=O)[C@H](C)NC(=O)[C@H](CC(=O)O)NC(=O)[C@@H]2CCCN2C(=O)[C@H]([C@@H](C)O)NC(=O)[C@@H](NC(C)=O)CSSC[C@@H](C(=O)O)NC(=O)[C@H](CCCCN)NC(=O)[C@H](CCCCN)NC(=O)[C@H](CCC(=O)O)NC(=O)[C@H](CCC(=O)O)NC(=O)[C@H](Cc2c[nH]c3ccccc23)NC(=O)[C@H](CCCCN)NC(=O)CNC(=O)[C@H](CC(=O)O)NC(=O)[C@H](CCCCN)NC1=O [Cyc1-6, C1TPDA TLSMK DGKWE EKKC19] (Ac-CTPDATLSMKDGKWEEKKC-OH; disulfide 1-19)
IC50 [1, 5]: 24.6 ± 2.3 µM
IC50 (sPHGDH (1-307); [6]): 5.1 ± 0.4 µM

CSCC[C@@H]1NC(=O)[C@H]([C@@H](C)O)NC(=O)[C@H](CC(C)C)NC(=O)[C@H]([C@@H](C)O)NC(=O)[C@H](C)NC(=O)[C@H](CCC(N)=O)NC(=O)[C@@H]2CCCN2C(=O)[C@H]([C@@H](C)O)NC(=O)[C@@H](NC(C)=O)CSSC[C@@H](C(=O)O)NC(=O)[C@H](CCCCN)NC(=O)[C@H](CCCCN)NC(=O)[C@H](CCC(=O)O)NC(=O)[C@H](CCC(=O)O)NC(=O)[C@H](Cc2c[nH]c3ccccc23)NC(=O)[C@H](CCCCN)NC(=O)CNC(=O)[C@H](CC(=O)O)NC(=O)[C@H](CCCCN)NC1=O [Cyc1-7, C1TPQA TLTMK DGKWE EKKC19] (Ac-CTPQATLTMKDGKWEEKKC-OH; disulfide 1-19)
IC50 [1, 5]: 23.5 ± 2 µM
IC50 (sPHGDH (1-307); [6]): 5.6 ± 1.2 µM

CSCC[C@@H]1NC(=O)[C@@H]2CSSC[C@H](NC(=O)[C@H](Cc3c[nH]c4ccccc34)NC(=O)[C@H](CCCCN)NC(=O)CNC(=O)[C@H](CC(=O)O)NC(=O)[C@H](CC(C)C)NC1=O)C(=O)N[C@@H](CCCNC(=N)N)C(=O)N[C@@H](CCCCN)C(=O)N[C@@H](CCCCN)C(=O)N[C@H](C(=O)O)CSSC[C@H](NC(C)=O)C(=O)N[C@@H]([C@@H](C)O)C(=O)N1CCC[C@H]1C(=O)N[C@@H](CCC(N)=O)C(=O)N[C@@H](C)C(=O)N[C@@H]([C@@H](C)O)C(=O)N[C@@H](C)C(=O)N2 [Cyc2-2, C1TPQA TAC8ML DGKWC15 RKKC19] (Ac-CTPQATACMLDGKWCRKKC-OH; disulfide 1-19, 8-15)
IC50 [1, 7]: 32.9 ± 4 µM
IC50 (sPHGDH (1-307)): 9.4 ± 1.5 µM

CSCC[C@@H]1NC(=O)[C@@H]2CSSC[C@H](NC(=O)[C@H](Cc3c[nH]c4ccccc34)NC(=O)[C@H](CCCCN)NC(=O)CNC(=O)[C@H](CC(=O)O)NC(=O)[C@H](CC(C)C)NC1=O)C(=O)N[C@@H](CCC(=O)O)C(=O)N[C@@H](CCCCN)C(=O)N[C@@H](CCCCN)C(=O)N[C@H](C(=O)O)CSSC[C@H](NC(C)=O)C(=O)N[C@@H]([C@@H](C)O)C(=O)N1CCC[C@H]1C(=O)N[C@@H](CCC(N)=O)C(=O)N[C@@H](C)C(=O)N[C@@H]([C@@H](C)O)C(=O)N[C@@H](C)C(=O)N2 [Cyc2-6, C1TPQA TAC8ML DGKWC15 EKKC19] (Ac-CTPQATACMLDGKWCEKKC-OH; disulfide 1-19, 8-15)
IC50 [1, 7]: 47.1 ± 5.2 µM
IC50 (sPHGDH (1-307)): 15 ± 1 µM

B1: cyclic peptide cyc1-2 (peptide)
peptide: CTPQATLSMKDGKWEEKKC
modifications: disulfide 1-19; not fully specified (N-terminus); printed as C_1_TPQA TLSMK DGKWE EKKC_19_
notes: cyc1-1 with A7L and R16E (peptide numbering); designed from the dimerization loop of human PHGDH; source: synthetic peptide (GL Biochem, Shanghai; Fmoc solid-phase synthesis, HPLC purified)
IC50 of inhibition of sPHGDH enzyme activity (NADH fluorescence); the pair blocked is the sPHGDH homo-dimer (m1+m1) [2]: 6.4 µM
Kd [3]: 11.4 ± 3 µM

B2: cyclic peptide cyc1-6 (peptide)
peptide: CTPDATLSMKDGKWEEKKC
modifications: disulfide 1-19; not fully specified (N-terminus); printed as C_1_TPDA TLSMK DGKWE EKKC_19_
notes: cyc1-2 with Q4D (peptide numbering); designed from the dimerization loop of human PHGDH; source: synthetic peptide (GL Biochem, Shanghai; Fmoc solid-phase synthesis, HPLC purified)
IC50 of inhibition of sPHGDH enzyme activity (NADH fluorescence); the pair blocked is the sPHGDH homo-dimer (m1+m1) [2]: 5.1 µM
Kd [3]: 24.8 ± 7.1 µM

B3: cyclic peptide cyc1-11 (peptide)
peptide: CTPQATLTMKNGSWEEKKC
modifications: disulfide 1-19; not fully specified (N-terminus); printed as C_1_TPQA TLTMK NGSWE EKKC_19_
notes: A7L and S8T combined with D11N, K13S, native E15 kept, E16 (peptide numbering); designed from the dimerization loop of human PHGDH; source: synthetic peptide (GL Biochem, Shanghai; Fmoc solid-phase synthesis, HPLC purified)
IC50 of inhibition of full-length PHGDH enzyme activity (NADH fluorescence); the pair blocked is the PHGDH homo-oligomer (m2+m2) [4]: 16.2 µM
IC50 of inhibition of sPHGDH enzyme activity (NADH fluorescence); the pair blocked is the sPHGDH homo-dimer (m1+m1) [2]: 5.4 µM
Kd [3]: 23.1 ± 4.2 µM

B4: double constrained cyclic peptide cyc2-1 (peptide)
peptide: Ac-CTPQATACMKDGKWCRKKC
modifications: disulfide 1-19, 8-15
notes: cyc1-1 with an added intramolecular disulfide C8-C15 (S8C, E15C); designed from the dimerization loop of human PHGDH; source: synthetic peptide (GL Biochem, Shanghai; Fmoc solid-phase synthesis, stepwise disulfide formation, HPLC purified)
IC50 of inhibition of full-length PHGDH enzyme activity (NADH fluorescence); the pair blocked is the PHGDH homo-oligomer (m2+m2) [4]: 37.3 µM
IC50 of inhibition of sPHGDH enzyme activity (NADH fluorescence); the pair blocked is the sPHGDH homo-dimer (m1+m1) [2]: 12 µM
Kd [3]: 3.3 ± 0.8 µM

B5: double constrained cyclic peptide cyc2-3 (peptide)
peptide: Ac-CTPQATACMRDGKWCRKKC
modifications: disulfide 1-19, 8-15
notes: cyc2-1 with K10R (peptide numbering); source: synthetic peptide (GL Biochem, Shanghai; Fmoc solid-phase synthesis, stepwise disulfide formation, HPLC purified)
IC50 of inhibition of full-length PHGDH enzyme activity (NADH fluorescence); the pair blocked is the PHGDH homo-oligomer (m2+m2) [4]: 32.9 µM
IC50 of inhibition of sPHGDH enzyme activity (NADH fluorescence); the pair blocked is the sPHGDH homo-dimer (m1+m1) [2]: 5.2 µM

B6: cyclic peptide cyc1-12 (peptide)
peptide: CTPQATLSMKNGSWEQKKC
modifications: disulfide 1-19; not fully specified (N-terminus); printed as C_1_TPQA TLSMK NGSWE QKKC_19_
notes: contains R16Q, with A7L, D11N and K13S (peptide numbering); designed from the dimerization loop of human PHGDH; source: synthetic peptide (GL Biochem, Shanghai; Fmoc solid-phase synthesis, HPLC purified)
IC50 of inhibition of full-length PHGDH enzyme activity (NADH fluorescence); the pair blocked is the PHGDH homo-oligomer (m2+m2) [4]: 20.3 µM
IC50 of inhibition of sPHGDH enzyme activity (NADH fluorescence); the pair blocked is the sPHGDH homo-dimer (m1+m1) [2]: 5.6 µM

B7: cyclic peptide cyc1-9 (peptide)
peptide: CTPQATASMKNGSWQEKKC
modifications: disulfide 1-19; not fully specified (N-terminus); printed as C_1_TPQA TASMK NGSWQ EKKC_19_
notes: the text names D11N, K13S and E15Q; designed from the dimerization loop of human PHGDH; source: synthetic peptide (GL Biochem, Shanghai; Fmoc solid-phase synthesis, HPLC purified)
IC50 of inhibition of sPHGDH enzyme activity (NADH fluorescence); the pair blocked is the sPHGDH homo-dimer (m1+m1) [2]: 4.7 µM
Kd [3]: 9.8 ± 2.2 µM
